B1: 1.15.1-1 (antibody, human IgG1, kappa)
heavy: QVQLLQSGAAVTKPGASVRVSCEASGYNIRDYFIHWWRQAPGQGLQWVGWINPKWGQPNNPRQFQGRVSLTRHASWDFDTFSFYMDLKALRSDDTAVYFCARQRSDYWDFDVWGSGTQVTVSSASTKGPSVFPLAPSSKSTSGGTAALGCLVKDYFPEPVTVSWNSGALTSGVHTFPAVLQSSGLYSLSSVVTVPSSSLGTQTYICNVNHKPSNTKVDKKVEPKSCDKTHTCPPCPAPELLAGPDVFLFPPKPKDTLMISRTPEVTCVVVDVSHEDPEVKFNWYVDGVEVHNAKTKPREEQYNSTYRVVSVLTVLHQDWLNGKEYKCKVSNKALPLPEEKTISKAKGQPREPQVYTLPPSREEMTKNQVSLTCLVKGFYPSDIAVEWESNGQPENNYKTTPPVLDSDGSFFLYSKLTVDKSRWQQGNVFSCSVLHEALHSHYTQKSLSLSPGK
light: DIQMTQSPSSLSASVGDTVTITCQANGYLNWYQQRRGKAPKLLIYDGSKLERGVPSRFSGRRWGQEYNLTINNLQPEDIATYFCQVYEFVVPGTRLDLKRTVAAPSVFIFPPSDEQLKSGTASVVCLLNNFYPREAKVQWKVDNALQSGNSQESVTEQDSKDSTYSLSSTLTLSKADYEKHKVYACEVTHQGLSSPVTKSFNRGEC
B2: 1.26.1-1 (antibody, human IgG1, kappa)
heavy: B1 heavy with W55T, V97T
light: B1 light
B3: 1.1.9-1 (antibody, human IgG1, kappa)
heavy: B1 heavy with W55T
light: B1 light with R52T
B4: 1.18.1-1 (antibody, human IgG1, kappa)
heavy: B1 heavy with W55H
light: B1 light
B5: 1.20.1-1 (antibody, human IgG1, kappa)
heavy: B1 heavy with W55T, S69T, L70M
light: B1 light
B6: 1.17.1-1 (antibody, human IgG1, kappa)
heavy: B1 heavy with W55A
light: B1 light
B7: 1.21.1-1 (antibody, human IgG1, kappa)
heavy: B1 heavy with W55T, H73D
light: B1 light
B8: 1.1.3-1 (antibody, human IgG1, kappa)
heavy: B1 heavy with W55T
light: B1 light with D1E
B9: 1.1.7-1 (antibody, human IgG1, kappa)
heavy: B1 heavy with W55T
light: B1 light with K49N
B10: 1.27.1-1 (antibody, human IgG1, kappa)
heavy: B1 heavy with W55T, S105T
light: B1 light
B11: 1.22.1-1 (antibody, human IgG1, kappa)
heavy: QVQLLQSGAAVTKPGASVRVSCEASGYNIRDYFIHWWRQAPGQGLQWVGWINPKTGQPNNPRQFQGRVSLTRHASTFSFYMDLKALRSDDTAVYFCARQRSDYWDFDVWGSGTQVTVSSASTKGPSVFPLAPSSKSTSGGTAALGCLVKDYFPEPVTVSWNSGALTSGVHTFPAVLQSSGLYSLSSVVTVPSSSLGTQTYICNVNHKPSNTKVDKKVEPKSCDKTHTCPPCPAPELLAGPDVFLFPPKPKDTLMISRTPEVTCVVVDVSHEDPEVKFNWYVDGVEVHNAKTKPREEQYNSTYRVVSVLTVLHQDWLNGKEYKCKVSNKALPLPEEKTISKAKGQPREPQVYTLPPSREEMTKNQVSLTCLVKGFYPSDIAVEWESNGQPENNYKTTPPVLDSDGSFFLYSKLTVDKSRWQQGNVFSCSVLHEALHSHYTQKSLSLSPGK
light: B1 light
B12: 1.1.15-1 (antibody, human IgG1, kappa)
heavy: B1 heavy with W55T
light: B1 light with V90F
B13: 1.1.2-1 (antibody, human IgG1)
heavy: B1 heavy with W55T
VL: DIQMTQSPSSLSASVGDTVTITCQANGYLNWYQQKPGKAPKLLIYDGSKLERGVPSRFSGRRWGQEYNLTINNLQPEDIATYFCQVYEFVVPGTKVDIK
B14: 1.16.1-1 (antibody, human IgG1, kappa)
heavy: B1 heavy with W55G
light: B1 light
B15: 1v2-1 (antibody, human IgG1, kappa)
heavy: B1 heavy with W55T, F81Y
light: B1 light
B16: 1.24.1-1 (antibody, human IgG1, kappa)
heavy: B1 heavy with W55T, Y84S
light: B1 light
B17: 1.25.1-1 (antibody, human IgG1, kappa)
heavy: B1 heavy with W55T, K88S, A89R
light: B1 light
B18: 1.1.10-1 (antibody, human IgG1, kappa)
heavy: B1 heavy with W55T
light: B1 light with N68T
B19: 1.1.6-1 (antibody, human IgG1, kappa)
heavy: B1 heavy with W55T
light: B1 light with G47A
B20: 1.1.11-1 (antibody, human IgG1, kappa)
heavy: B1 heavy with W55T
light: B1 light with R61S, N68T
B21: 1.30.1-1 (antibody, human IgG1, kappa)
heavy: B1 heavy with W55T, Q118M
light: B1 light
B22: 1.1.4-1 (antibody, human IgG1, kappa)
heavy: B1 heavy with W55T
light: B1 light with T18R
B23: 1.1.12-1 (antibody, human IgG1, kappa)
heavy: B1 heavy with W55T
light: B1 light with N72S, N73S
B24: 1.1.8-1 (antibody, human IgG1, kappa)
heavy: B1 heavy with W55T
light: B1 light with G47A, K49N
B25: 1.1.5-1 (antibody, human IgG1, kappa)
heavy: B1 heavy with W55T
light: B1 light with R35K, R36P
B26: 1.19.1-1 (antibody, human IgG1, kappa)
heavy: B1 heavy with W55T, S69T
light: B1 light
B27: 1.1.13-1 (antibody, human IgG1, kappa)
heavy: B1 heavy with W55T
light: B1 light with R61S, N68T, N72S, N73S
B28: 1.28.1-1 (antibody, human IgG1, kappa)
heavy: B1 heavy with W55T, V97T, S105T
light: B1 light
B29: 1.29.1-1 (antibody, human IgG1, kappa)
heavy: B1 heavy with W55T, S115Q
light: B1 light

Substitutions are numbered along the chain they refer to.

The first test deals with HIV gp120 CAAN (HIV). Description: single-point ELISA. (An ELISA detects its analyte on a solid surface through an enzyme-linked reagent.)
With B1, the “ELISA (A450)” value is 1.38 A450.
With B2, the “ELISA (A450)” value was found to be 1 A450.
With B3, the “ELISA (A450)” value is 0.93 A450.
Regarding B4, the “ELISA (A450)” value was 1.18 A450.
In the case of B5, the “ELISA (A450)” value is 0.8 A450.
With B6, the “ELISA (A450)” value amounted to 0.7 A450.
Consider B7, for which the “ELISA (A450)” value was 0.77 A450.
For B8, the “ELISA (A450)” value stood at 1 A450.
For the molecule B9, the “ELISA (A450)” value worked out at 1 A450.
Regarding B10, the “ELISA (A450)” value turned out to be 0.86 A450.
For B11, the “ELISA (A450)” value was determined as 0.87 A450.
Consider B12, for which the “ELISA (A450)” value stood at 0.79 A450.
As to B13, the “ELISA (A450)” value came to 0.93 A450.
Regarding B14, the “ELISA (A450)” value was found to be 0.87 A450.
Still for that read-out and setting: next, B15: 1 A450; B16: 0.9 A450; B17: 1.16 A450.
Consider B18, for which the “ELISA (A450)” value was 1.1 A450.
With B19, the “ELISA (A450)” value worked out at 0.46 A450.
Still for that read-out and setting: next, B20: 1.03 A450; B21: 1.05 A450; B22: 1.09 A450.
Regarding B23, the “ELISA (A450)” value is 1.02 A450.
Same read-out and setting: for B24 the value was 0.5 A450; for B25, 0.9 A450.
The same measure, in the same setting: next, B26: 0.93 A450; B27: 1.11 A450.
B28: the “ELISA (A450)” value was determined as 0.99 A450.
For the molecule B29, the “ELISA (A450)” value was 1.08 A450.

The next test has as its target HIV gp120 Bal (HIV). Description: single-point ELISA. Further: test concentration or dose not given here.
As to B1, the “ELISA (A450)” value was 0.87 A450.
With B2, the “ELISA (A450)” value amounted to 0.81 A450.
With B3, the “ELISA (A450)” value worked out at 0.98 A450.
B4: the “ELISA (A450)” value is 0.97 A450.
On to B5, for which the “ELISA (A450)” value worked out at 0.89 A450.
Still for that read-out and setting: next, B6: 0.84 A450; B7: 0.87 A450; B8: 0.97 A450.
Regarding B9, the “ELISA (A450)” value worked out at 0.95 A450.
Take B10: the “ELISA (A450)” value came to 0.86 A450.
As to B11, the “ELISA (A450)” value came to 1.03 A450.
Same read-out and setting: for B12 the value was 0.93 A450; for B13, 0.95 A450.
As for B14, the “ELISA (A450)” value was found to be 0.92 A450.
For B15, the “ELISA (A450)” value amounted to 1.03 A450.
With B16, the “ELISA (A450)” value worked out at 0.98 A450.
Still for that read-out and setting: for B17 the value was 1.07 A450.
For B18, the “ELISA (A450)” value stood at 0.94 A450.
For B19, the “ELISA (A450)” value came out at 0.91 A450.
As to B20, the “ELISA (A450)” value is 0.92 A450.
As to B21, the “ELISA (A450)” value worked out at 0.81 A450.
With B22, the “ELISA (A450)” value is 0.96 A450.
B23: the “ELISA (A450)” value was determined as 1.05 A450.
As for B24, the “ELISA (A450)” value worked out at 1.01 A450.
On the same count and under the same terms, for B25 the value was 0.9 A450; for B26, 0.85 A450; for B27, 0.94 A450.
For B28, the “ELISA (A450)” value is 1.05 A450.
B29: the “ELISA (A450)” value was determined as 1.03 A450.

(Values after patent US20220089698A1 (published 2022).)
